Data reported in the supplement of paper PMC9732359.
± gives the uncertainty stated by the source.

Experiment: protein stability index of a GFP-peptide fusion (yeast GPS) (PSI 1-4); higher = more stable; sorted into four equal gates, so the index is relative within each strain
In short: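 Peptides tiling yeast proteins in 17-residue segments were fused downstream of GFP, with Cherry expressed from the same plasmid. As a pooled library in yeast, mid-log cultures grown in leucine-free medium were sorted into four equal gates by GFP/Cherry fluorescence ratio. Gate plasmids were PCR-amplified and Illumina-sequenced, and barcodes linked reads to strains. Each peptide received a protein stability index equal to the sum of each gate's read frequency times its gate number.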

| Sequence | protein stability index (doa10∆) | protein stability index (pdr5∆) | protein stability index (san1∆) | protein stability index (ubr1∆) |
| --- | --- | --- | --- | --- |
| PFHDPEARLFNIWGTVR [ECM29] | 1.33 ± 0.26 | 1.43 ± 0.22 |  |  |
| PFKVFLDIGLQRTTTGA [RPL5] | 1.63 ± 0.07 | 2.04 ± 0.074 | 2.23 ± 0.076 | 1.53 ± 0.053 |
| PGDGSSYINVTFRAVVF [RPC25] | 1.5 ± 0.083 | 2.05 ± 0.058 | 2.4 ± 0.077 | 2.08 ± 0.054 |
| PGDVLDKDAFIPKLKPA [SNU114] | 1.89 ± 0.094 | 1.5 ± 0.098 | 1.2 ± 0.18 | 1.71 ± 0.12 |
| PGHSLLLSIKLPGKVNT [SNF5] | 2.37 ± 0.059 | 1.77 ± 0.039 | 2.08 ± 0.058 | 2.29 ± 0.04 |
| PGHVNFMDETAVALAAS [SNU114] | 2.4 ± 0.062 | 2.7 ± 0.1 | 2.29 ± 0.073 | 2.34 ± 0.066 |
| PGIMLRQMNLVITLLNN [YCS4] | 1.2 ± 0.06 | 1.11 ± 0.042 | 1.14 ± 0.13 | 1.19 ± 0.041 |
| PGTIVLYAERVQDRGLS [RPS3] | 2.87 ± 0.06 | 2.99 ± 0.056 | 2.62 ± 0.085 | 3.17 ± 0.041 |
| PGTVLILLAGRFRGKRV [RPL6A] | 1.61 ± 0.066 | 1.83 ± 0.069 | 1.66 ± 0.11 | 2.19 ± 0.073 |
| PHIQKMLSILEIFKKGY [POP6] | 2.42 ± 0.11 | 2.73 ± 0.099 | 3.1 ± 0.091 | 2.54 ± 0.066 |
| PIFDYIHIDALELAGMD [SIR3] | 1.63 ± 0.053 | 1.79 ± 0.054 | 2.05 ± 0.064 | 2.17 ± 0.092 |
| PIRINSTEEIEYIELEY [YMR129W/POM152] | 2.45 ± 0.095 | 3.04 ± 0.09 | 2.68 ± 0.091 | 2.82 ± 0.039 |
| PKAVVDHINGSGKRKPT [GAL11] | 2.25 ± 0.076 | 2.81 ± 0.064 | 1.52 ± 0.11 | 2.16 ± 0.079 |
| PKDYIKKLLEVHDIFSK [CDC53] | 1.46 ± 0.042 | 2.04 ± 0.06 | 1.75 ± 0.099 | 1.66 ± 0.04 |
| PKFFLGEENRVRFIGDS [QCR2] | 3.17 ± 0.1 | 3.15 ± 0.11 | 3.07 ± 0.073 | 3.2 ± 0.069 |
| PKLKEGALHFVQQSEKL [YIL149C/MLP2] | 2.58 ± 0.064 | 2.33 ± 0.082 | 2.31 ± 0.066 | 2.88 ± 0.05 |
| PKLKRIGLVKCTQMTDE [GRR1] | 2.95 ± 0.073 | 2.89 ± 0.076 | 2.81 ± 0.057 | 2.86 ± 0.047 |
| PKMGVSSSSLECATCHG [RPO31] | 2.97 ± 0.085 | 3.34 ± 0.049 | 3.32 ± 0.097 | 3.2 ± 0.056 |
| PKNFGIGQAVQPKRNLS [RPL8A] | 2.74 ± 0.064 | 2.74 ± 0.056 | 2.78 ± 0.043 | 2.69 ± 0.05 |
| PKRKRRLPVSEDTNTKP [YOR098C/NUP1] | 3.16 ± 0.11 | 2.82 ± 0.13 |  | 2.97 ± 0.073 |
| PKSKSLPNEMSQNDGFV [RPO31] | 3 ± 0.2 | 3.14 ± 0.14 | 3.38 ± 0.12 | 3.36 ± 0.11 |
| PLGVILTFVSVDEELGP [SCL1] | 1.72 ± 0.039 | 1.9 ± 0.037 | 2.67 ± 0.052 | 2.46 ± 0.04 |
| PLHLIFAQPVADIENST [SSN2] | 2.67 ± 0.078 | 2.51 ± 0.097 | 2.72 ± 0.13 | 2.67 ± 0.1 |
| PLILTPPQLANQQQPPQ [SNF11] | 1.53 ± 0.066 | 1.93 ± 0.071 | 2.04 ± 0.093 | 2.15 ± 0.069 |
| PLIMATCGSKGSTLNVS [RPO31] | 2.84 ± 0.12 | 2.05 ± 0.074 | 2.54 ± 0.1 | 2.23 ± 0.069 |
| PLNKPLLTEELAKSGST [TAF14] | 2.25 ± 0.068 | 2.24 ± 0.064 | 2.94 ± 0.072 | 2.39 ± 0.054 |

| Sequence | protein stability index (doa10∆) | protein stability index (pdr5∆) | protein stability index (san1∆) | protein stability index (ubr1∆) |
| --- | --- | --- | --- | --- |
| PLPICHANSVVALTGLL [YML031W/NDC1] | 3.13 ± 0.12 | 1.73 ± 0.083 | 2.58 ± 0.099 | 2.5 ± 0.12 |
| PLQNIHVRKVKLLKQPK [RPS1A] | 2.69 ± 0.075 | 2.82 ± 0.074 | 2.71 ± 0.051 | 2.53 ± 0.065 |
| PLQSMDIEQLEYSRDCF [RPB3] | 3.16 ± 0.074 | 3.17 ± 0.068 | 3.21 ± 0.08 | 2.93 ± 0.11 |
| PLSDLKKRSQAKMNAKT [RPC82] | 3.21 ± 0.08 | 3.4 ± 0.081 | 3.05 ± 0.066 | 3.32 ± 0.045 |
| PLVAHLGLYVGVDDQIL [YJL039C/NUP192] | 2.42 ± 0.074 | 2.85 ± 0.12 | 2.26 ± 0.11 | 1.48 ± 0.13 |
| PMLMANNDVFTIGPYRA [SSN3] | 3.04 ± 0.07 | 3.3 ± 0.082 | 3.13 ± 0.072 | 3.14 ± 0.058 |
| PNALKPLSESLRLVDDD [RRP6] | 3.15 ± 0.091 | 3.34 ± 0.081 | 2.82 ± 0.093 | 3.23 ± 0.055 |
| PNDSNDEKVTILVDSLT [SWI1] | 2.67 ± 0.057 | 2.81 ± 0.065 | 3.01 ± 0.071 | 3.06 ± 0.042 |
| PNFTGIDKLMLSPSDQF [SSN2] | 1.39 ± 0.08 | 1.33 ± 0.068 |  | 1.61 ± 0.067 |
| PNGEGSKTWETYEMRIH [RPS20] | 3.09 ± 0.091 | 3.35 ± 0.069 | 3.05 ± 0.095 | 3.33 ± 0.045 |
| PNIVEIDLDNDEDDDED [DLS1] | 3.17 ± 0.084 | 3.29 ± 0.065 | 2.89 ± 0.1 | 3.04 ± 0.15 |
| PNSGTATTGGFGANQAT [YGR119C/NUP57] | 2.12 ± 0.084 | 2.33 ± 0.07 | 2.12 ± 0.091 | 2.14 ± 0.067 |
| PNTSDNNNNSNNHNMRN [SWI1] | 3.12 ± 0.053 | 3.02 ± 0.059 | 2.93 ± 0.046 | 3.15 ± 0.038 |
| PPGTGKTLCARAVANRT [RPT1] | 1.26 ± 0.1 | 1.25 ± 0.19 | 1.37 ± 0.18 | 1.27 ± 0.12 |
| PPGYEIEELDNPMVPSS [PRP8] | 2.42 ± 0.1 | 2.65 ± 0.066 | 3.26 ± 0.085 | 2.82 ± 0.049 |
| PPQQTYHFPIFNKYADP [RPN4] | 2.52 ± 0.046 | 2.8 ± 0.042 | 2.59 ± 0.034 | 2.65 ± 0.03 |
| PPSKHSTLTLSDSEDSD [ESC2] | 3.01 ± 0.15 | 2.82 ± 0.14 | 2.59 ± 0.071 | 2.64 ± 0.19 |
| PQGFSSVERGRKRAHSL [REC8] | 3.38 ± 0.11 | 3.4 ± 0.12 | 3.36 ± 0.048 | 3.19 ± 0.067 |
| PQPLFMEDPPSTVSGEL [YMR153W/NUP53] | 3.38 ± 0.2 | 3.64 ± 0.19 | 3.58 ± 0.11 | 3.12 ± 0.16 |
| PQQAQMQQAQFQAQQAQ [SNF2] | 2.94 ± 0.062 | 3.04 ± 0.058 | 2.99 ± 0.055 | 3.1 ± 0.041 |
| PQRLTVLRLATNKGPLA [MCD1] | 2.78 ± 0.099 | 2.39 ± 0.073 | 2.8 ± 0.074 | 2.42 ± 0.074 |
| PQTTQMFQSQSQLQPQP [YDL088C/ASM4] | 2.7 ± 0.052 | 2.5 ± 0.039 | 2.65 ± 0.046 | 2.46 ± 0.03 |
| PQYQYQRRYVIKEKVQF [ITC1] | 1.56 ± 0.069 | 1.88 ± 0.047 | 1.79 ± 0.095 | 1.47 ± 0.03 |
| PRIQRADPVALYLGLKR [RPB5] | 1.82 ± 0.11 | 2.42 ± 0.1 |  | 2.28 ± 0.083 |
| PRLEKLINEILLKSNDP [RGR1] | 1.68 ± 0.059 | 2.01 ± 0.045 | 1.75 ± 0.079 | 1.86 ± 0.039 |
